Data as given in patent US20220282217A1 (BIONTECH US, published 2022).
Each block holds one binder with its values, some of them ahead of it.

How the values were obtained:
[1] = target: T1, HLA class I molecule B07.02; assay: competition with radiolabeled reference peptide on purified MHC I
T1 construct: Purified MHC class I complex; also called HLA-B07:02
Procedure: (§1) Peptides were incubated at varying concentrations with these complexes for 2 days, and the amount of remaining radiolabeled peptide bound to […] was measured using size exclusion gel-filtration.

[2] = target: T2, HLA class I molecule B08.01; assay: pMHC-I dissociation assay with 125I-labeled beta2m light chain at 37 C, scintillation counts; time in hours for half of the complexes to dissociate
T2 construct: Purified MHC class I complex; also called HLA-B08:01
Procedure: (§2) Briefly, synthetic genes encoding biotinylated MHC-I heavy and light chains are expressed in E. coli and purified from inclusion bodies using standard methods. […] These reactions are carried out in streptavidin coated microplates to bind the biotinylated MHC-I heavy chains to the surface and allow measurement of radiolabeled light chain to monitor complex formation. Dissociation is initiated by addition of higher concentrations of unlabeled light-chain and incubation at 37° C. Stability is defined as the length of time in hours it takes for half of the complexes to dissociate, as measured by scintillation counts.

[3] = target: T1, HLA class I molecule B07.02; assay: as above
Procedure: as §2

[4] = target: T3, HLA-B07.02 (human); assay: competition with radiolabeled reference peptide, purified MHC I
T3 construct: Purified class I MHC
Procedure: as §1

[5] = target: T4, HLA class I molecule A03.01; assay: competition with radiolabeled reference peptide on purified MHC I
T4 construct: Purified MHC class I complex; also called HLA-A03:01
Procedure: as §1

[6] = target: T5, HLA class I molecule A01.01; assay: as above
T5 construct: Purified MHC class I complex; also called HLA-A01:01
Procedure: as §1

[7] = target: T6, HLA class I molecule A02.01; assay: as above
T6 construct: Purified MHC class I complex; also called HLA-A02:01
Procedure: as §1

[8] = target: T2, HLA class I molecule B08.01; assay: pMHC-I dissociation half-life, 125I-b2m
How it was run: (§3)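 Biotinylated MHC-I heavy chain made in E. coli, captured on streptavidin plates and complexed with peptide and radiolabelled light chain. Dissociation started with excess unlabelled light chain at 37 °C. Stability is the half-life in hours from scintillation counts.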

[9] = target: T6, HLA class I molecule A02.01; assay: pMHC-I dissociation half-life, 125I-b2m
How it was run: as §3

[10] = target: T3, HLA-B07.02; assay: pMHC-I dissociation half-life, 125I-b2m
How it was run: as §3

[11] = target: T7, HLA class I molecule A24.02; assay: competition with radiolabeled reference peptide on purified MHC I
T7 construct: Purified MHC class I complex; also called HLA-A24:02
Procedure: as §1

[12] = target: HLA-A02.01 (human); assay: pMHC-I complex dissociation at 37 C, 125I-b2m, half-life
Procedure: as §2

[13] = target: T8, HLA-A24.02 (human); assay: as above
T8 construct: As for HLA-A02.01
Procedure: as §2

[14] = target: HLA-A02.01 (human); assay: competition vs radiolabeled reference peptide on purified MHC I, gel filtration
Procedure: as §1

[15] = target: T8, HLA-A24.02; assay: as above
Procedure: as §1

[16] = target: T9, HLA-A03.01 (human); assay: pMHC-I dissociation half-life, 125I-b2m
T9 construct: Purified class I MHC
How it was run: as §3

[17] = target: T10, HLA-A02.01 (human); assay: pMHC-I dissociation half-life, 125I-b2m
T10 construct: Purified class I MHC
How it was run: as §3

[18] = target: T11, HLA-B08.01 (human); assay: pMHC-I dissociation half-life, 125I-b2m
T11 construct: Purified class I MHC
How it was run: as §3

B1: FATLQRSSL (peptide)
peptide: FATLQRSSL
notes: also called GATA3 . . ; CSNH
IC50 [1]: 14 nM | Observed MHC Stability [2]: 0 h | Observed MHC Stability [3]: 0.7 h

B3: FFFCWILSCK (peptide)
peptide: FFFCWILSCK
notes: also called NDUFC2 (-KCDT14)(+1)
IC50 [5]: 597 nM

B4: ALKKLRSPL (peptide)
peptide: ALKKLRSPL
notes: also called SMAP1(-1)
IC50 [4]: 223 nM

B8: GSNEVTTRY (peptide)
peptide: GSNEVTTRY
notes: also called RBM27(+1)
IC50 [6]: 606 nM

B10: ESKIMFATL (peptide)
peptide: ESKIMFATL
notes: also called GATA3 . . ; CSNH
Observed MHC Stability [2]: 1.3 h

B12: GPPARVPAV (peptide)
peptide: GPPARVPAV
notes: also called GATA3 . . ; CSNH
IC50 [1]: 221 nM | Observed MHC Stability [3]: 1.6 h

B13: KPKRDGYMF (peptide)
peptide: KPKRDGYMF
notes: also called GATA3 . . ; CSNH
IC50 [1]: 28.2 nM | Observed MHC Stability [3]: 8.6 h

B14: IMKPKRDGYM (peptide)
peptide: IMKPKRDGYM
notes: also called GATA3 . . ; CSNH
Observed MHC Stability [2]: 0.4 h

B15: GPPRPPRAAC (peptide)
peptide: GPPRPPRAAC
notes: also called LMAN1(+1)
IC50 [1]: 48.6 nM

B18: KLSDSRTAL (peptide)
peptide: KLSDSRTAL
notes: also called FRG1B, I1OT
Stability (T1/2 (h)) [8]: 0 h

B21: FFCWILSCK (peptide)
peptide: FFCWILSCK
notes: as for B3
IC50 [5]: 185 nM

B23: ILDTAGHEEY (peptide)
peptide: ILDTAGHEEY
notes: also called KRAS, Q61H
IC50 [6]: 64.2 nM

B24: ILDTAGREEY (peptide)
peptide: ILDTAGREEY
notes: also called NRAS, Q61R
IC50 [6]: 7 nM

B25: ILDTAGLEEY (peptide)
peptide: ILDTAGLEEY
notes: also called KRAS, Q61L
IC50 [6]: 8.6 nM

B26: ILDTAGKEEY (peptide)
peptide: ILDTAGKEEY
notes: also called NRAS, Q61K
IC50 [6]: 14.3 nM

B30: FLKAESKIM (peptide)
peptide: FLKAESKIM
notes: also called GATA3 . . ; CSNH
Observed MHC Stability [2]: 1.2 h

B31: VVPLCDLLL (peptide)
peptide: VVPLCDLLL
notes: also called ESR1, Y537C
Stability (T1/2 (h)) [12]: 0 h | Stability (T1/2 (h)) [13]: 0.4 h | IC50 [14]: 1200 nM | IC50 [15]: 3890 nM

B34: KGPELFPLI (peptide)
peptide: KGPELFPLI
notes: also called C11orf95: RELA
Stability (T1/2 (h)) [12]: 0.3 h | Stability (T1/2 (h)) [13]: 1.7 h | IC50 [14]: 101 nM | IC50 [15]: 14 nM

B35: GVYTFLPSTL (peptide)
peptide: GVYTFLPSTL
notes: also called ESR1, S463P
Stability (T1/2 (h)) [12]: 0.4 h | Stability (T1/2 (h)) [13]: 0 h | IC50 [14]: 1200 nM | IC50 [15]: 7700 nM

B38: AISTRDPLSK (peptide)
peptide: AISTRDPLSK
notes: also called PIK3CA, E542K
IC50 [5]: 57.5 nM

B42: HPRPAPASA (peptide)
peptide: HPRPAPASA
notes: also called TP53, SHST
IC50 [4]: 11 nM | Stability (T1/2 (h)) [10]: 4.9 h | Stability (T1/2 (h)) [18]: 0 h

B43: FLKAESKIMF (peptide)
peptide: FLKAESKIMF
notes: also called GATA3 . . ; CSNH
Observed MHC Stability [2]: 0 h

Now from value to binder:

IC50 [4]: 826 nM
B2: RVQNQGHLL (peptide)
peptide: RVQNQGHLL
notes: also called UBR5(-1)

IC50 [6]: 4.4 nM
B5: TTNAFSGEY (peptide)
peptide: TTNAFSGEY
notes: also called RAC1, P29S

IC50 [1]: 98.1 nM | Observed MHC Stability [3]: 3.3 h
B6: KPKRDGYMFL (peptide)
peptide: KPKRDGYMFL
notes: also called GATA3 . . ; CSNH

IC50 [7]: 7770 nM | Stability (T1/2 (h)) [8]: 0 h | Stability (T1/2 (h)) [9]: 0.5 h
B7: QVLHECNSL (peptide)
peptide: QVLHECNSL
notes: also called MEK, P124L

IC50 [4]: 8 nM | Stability (T1/2 (h)) [10]: 3 h
B9: KPTRAATVSV (peptide)
peptide: KPTRAATVSV
notes: also called TP53, QPSL

IC50 [6]: 10.5 nM
B11: YTTNAFSGEY (peptide)
peptide: YTTNAFSGEY
notes: also called RAC1, P29S

IC50 [4]: 3 nM | Stability (T1/2 (h)) [10]: 3.7 h
B16: LPRKPTRAAT (peptide)
peptide: LPRKPTRAAT
notes: also called TP53, QPSL

IC50 [4]: 78 nM
B17: KSRQNHLQL (peptide)
peptide: KSRQNHLQL
notes: also called SMAP1(-1)

IC50 [1]: 267 nM | Observed MHC Stability [2]: 0 h | Observed MHC Stability [3]: 0 h
B19: MFATLQRSSL (peptide)
peptide: MFATLQRSSL
notes: also called GATA3 . . ; CSNH

IC50 [7]: 323 nM | IC50 [11]: 60.1 nM
B20: LLYITAFFLL (peptide)
peptide: LLYITAFFLL
notes: also called NDUFC2 (-KCDT14)(-1)

IC50 [1]: 32.8 nM
B22: PPRPPRAAC (peptide)
peptide: PPRPPRAAC
notes: also called LMAN1(+1)

IC50 [11]: 45.3 nM
B27: LYITAFFFCW (peptide)
peptide: LYITAFFFCW
notes: as for B3

Observed MHC Stability [2]: 0 h
B28: LHFCRSSIM (peptide)
peptide: LHFCRSSIM
notes: also called GATA3 . . ; CSNH

Stability (T1/2 (h)) [12]: 0 h | Stability (T1/2 (h)) [13]: 2.6 h | IC50 [14]: 2060 nM | IC50 [15]: 2150 nM
B29: YLVIQLQDKF (peptide)
peptide: YLVIQLQDKF
notes: also called EGFR: SEPT14

Stability (T1/2 (h)) [12]: 0 h | Stability (T1/2 (h)) [13]: 0.5 h | IC50 [14]: 2550 nM | IC50 [15]: 8250 nM
B32: VVPLSDLLL (peptide)
peptide: VVPLSDLLL
notes: also called ESR1, Y537S

IC50 [11]: 0.1 nM
B33: LYITAFFLL (peptide)
peptide: LYITAFFLL
notes: as for B20

Stability (T1/2 (h)) [12]: 0.6 h | Stability (T1/2 (h)) [13]: 0.8 h | IC50 [15]: 658 nM
B36: VVPLYGLLL (peptide)
peptide: VVPLYGLLL
notes: also called ESR1, D538G

IC50 [1]: 72.6 nM
B37: LPQARLCLI (peptide)
peptide: LPQARLCLI
notes: also called MSH3(-1)

IC50 [6]: 15500 nM
B39: TGSNEVTTRY (peptide)
peptide: TGSNEVTTRY
notes: also called RBM27(+1)

IC50 [7]: 713 nM | Stability (T1/2 (h)) [8]: 0 h | Stability (T1/2 (h)) [9]: 17 h
B40: LLYITAFFL (peptide)
peptide: LLYITAFFL
notes: as for B20

Stability (T1/2 (h)) [16]: 0 h | Stability (T1/2 (h)) [17]: 18.7 h
B41: RLSSCVPVA (peptide)
peptide: RLSSCVPVA
notes: also called TGFBR2(-1)

IC50 [7]: 4720 nM | Stability (T1/2 (h)) [8]: 0 h | Stability (T1/2 (h)) [9]: 0 h
B44: LQVLHECNSL (peptide)
peptide: LQVLHECNSL
notes: also called MEK, P124L

Stability (T1/2 (h)) [8]: 0 h | Stability (T1/2 (h)) [9]: 4 h
B45: LLALWECSL (peptide)
peptide: LLALWECSL
notes: also called MSH3(-1)

IC50 [4]: 10 nM | Stability (T1/2 (h)) [10]: 6.5 h | Stability (T1/2 (h)) [18]: 0.7 h
B46: LPSQRRNHWM (peptide)
peptide: LPSQRRNHWM
notes: also called TP53, CSES

IC50 [5]: 16 nM
B47: VLWTTPPLQH (peptide)
peptide: VLWTTPPLQH
notes: also called GATA3 . . ; CSNH

IC50 [11]: 332 nM
B48: MFLKAESKI (peptide)
peptide: MFLKAESKI
notes: also called GATA3 . . ; CSNH

IC50 [11]: 0.4 nM
B49: LYITAFFLLD (peptide)
peptide: LYITAFFLLD
notes: as for B20
